The results in this text go back to patent US20220372155A1 (LYVGEN BIOPHARMA, published 2022).

Test [1] deals with T1, human PD-1 expressed on CHO cells (human, UniProt Q15116 25-288).
T1 construct: whole, on cells; also used for human PD-1 on Jurkat reporter cells; also called Jurkat/NFkB-Luci/PD-1 cells
Kind of test: FACS, CHO cells.

For test [2], the target named is T2, human CD40 expressed on CHO cells (human, UniProt P25942 21-277).
T2 construct: whole, on cells; also used for the reporter cells over-expressing human CD40; also called cellular CD40; CHO-CD40 cells
T2 sequence (P25942 21-277): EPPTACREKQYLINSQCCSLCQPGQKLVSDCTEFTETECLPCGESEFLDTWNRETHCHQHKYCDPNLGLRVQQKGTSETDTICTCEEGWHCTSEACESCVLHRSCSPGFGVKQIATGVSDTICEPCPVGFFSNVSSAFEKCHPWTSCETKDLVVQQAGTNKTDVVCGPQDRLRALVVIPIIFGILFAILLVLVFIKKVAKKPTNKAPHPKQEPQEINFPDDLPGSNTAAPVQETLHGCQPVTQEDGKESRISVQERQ
Description: FACS, CHO cells. In general terms: In flow cytometry, cells or beads pass a laser one at a time.

For test [3], the target named is T3, Ly090 (human CD40 ECD protein with His tag) (human, UniProt P25942 21-193).
T3 construct: extracellular domain; also called human CD40 ECD protein (His tag); recombinant human CD40; not shown: His tag
T3 sequence (P25942 21-193): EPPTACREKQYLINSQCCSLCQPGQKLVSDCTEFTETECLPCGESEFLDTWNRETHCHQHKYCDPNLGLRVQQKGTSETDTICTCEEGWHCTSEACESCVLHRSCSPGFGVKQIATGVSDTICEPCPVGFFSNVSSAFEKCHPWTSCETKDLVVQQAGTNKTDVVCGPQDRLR
Kind of test: bridging ELISA, coated CD40 ECD-His, soluble PD-L1 ECD-mFc. How it is done: Exemplary anti-PD-L1/CD40 bi-specific antibodies were analyzed by ELISA for their simultaneous binding to recombinant human PD-L1 and human CD40. Briefly, Ly090 (human CD40 ECD protein with His tag) was diluted and coated onto an ELISA plate with a volume of 100 μL/well by incubation at 4° C. overnight. The next day, the plate was blocked by PBST-BSA buffer, then serially diluted samples of anti-PD-L1/CD40 bi-specific antibodies were pipetted into appropriate wells at 50 μL/well, and the plate was incubated for 1 h followed by Washing. Human PD-L1 ECD protein (mouse IgG2a Fc tag) was added into the plate at 50 μL/well. After 1-hour incubation at room temperature, HRP-conjugated anti-Mouse IgG, Fc G2a antibody was added into the plate at 100 μL/well. The plate was incubated for 1 hour at room temperature followed by washing. TMB substrate solution was added at 100 μL/well and the color development was stopped by adding 100 uL/well Stop Solution (2N H₂SO₄). Absorbance at 450 nm and 620 nm was read by Tecan F200 Pro plate reader. GraphPad 7.0, “[Agonist] vs. response—Variable slope (four parameters)” was used to plot the binding data and calculate binding EC50 values.

T1 sequence (Q15116 25-288): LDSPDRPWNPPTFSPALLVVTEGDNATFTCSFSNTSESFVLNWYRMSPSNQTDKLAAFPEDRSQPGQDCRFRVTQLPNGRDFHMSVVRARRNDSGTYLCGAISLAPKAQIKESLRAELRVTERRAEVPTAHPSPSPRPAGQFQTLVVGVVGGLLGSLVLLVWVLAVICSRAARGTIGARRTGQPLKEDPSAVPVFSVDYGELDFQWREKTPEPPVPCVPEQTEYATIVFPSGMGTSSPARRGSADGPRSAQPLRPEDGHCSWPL

B1: Ly819 (bispecific antibody, human IgG1, kappa)
heavy: QVTLKESGPALVKPTQTLTLTCTFSGFSLSTSGTCVSWIRQPPGKALEWLATICWEDSKGYNPSLKSRLTISKDTSKNQAVLTMTNMDPVDTATYYCARREDSGYFWFPYWGQGTLVTVSSASTKGPSVFPLAPSSKSTSGGTAALGCLVKDYFPEPVTVSWNSGALTSGVHTFPAVLQSSGLYSLSSVVTVPSSSLGTQTYICNVNHKPSNTKVDKKVEPKSCDKTHTCPPCPAPELLGPSVFLFPPKPKDTLMISRTPEVTCVVVDVSHEDPEVKFNWYVDGVEVHNAKTKPREEQYNSTYRVVSVLTVLHQDWLNGKEYKCKVSNKALPAPIEKTISKAKGQPREPQVYTLPPSREEMTKNQVSLTCLVKGFYPSDIAVEWESNGQPENNYKTTPPVLDSDGSFFLYSKLTVDKSRWQQGNVFSCSVMHEALHNHYTQKSLSLSPGK
light: NIQMTQSPSSLSASVGDRVTITCKAGQNVNNYLAWYQQKPGKAPKVLIFNANSLQTGVPSRFSGSGSGTDFTLTISSLQPEDFATYYCQQYNSWPTFGGGTKVEIKRTVAAPSVFIFPPSDEQLKSGTASVVCLLNNFYPREAKVQWKVDNALQSGNSQESVTEQDSKDSTYSLSSTLTLSKADYEKHKVYACEVTHQGLSSPVTKSFNRGECGGGGSGGGGSGGGGSGGGGSDIQMTQSPSSLSASVGDRVTITCLASEDISNDLAWYQQKPGKAPKLLIYFVDRLLDGVPSRFSGSGSGTDFTLTISSLQPEDFATYYCQQSYKYPPTFGQGTKLEIKGGGGSGGGGSGGGGSGGGGSEVQLVESGGGLVQPGGSLRLSCAASGFTFTNYGLHWVRQAPGKGLEWVSSISPSGGVTYYRDSVKGRFTISRDNSKNTLYLQMNSLRAEDTAVYYCAKPFLGWGGANWIAHWGQGTLVTVSS
notes: Ly516 HC (IgG1 mutated Fc) + Ly516 LC-TM559 scFv VL-VH
For the molecule B1, the binding result in test [1] and in test [2] was “binds” throughout.

B2: Ly820 (bispecific antibody, human IgG1, kappa)
heavy: QVTLKESGPALVKPTQTLTLTCTFSGFSLSTSGTCVSWIRQPPGKALEWLATICWEDSKGYNPSLKSRLTISKDTSKNQAVLTMTNMDPVDTATYYCARREDSGYFWFPYWGQGTLVTVSSASTKGPSVFPLAPSSKSTSGGTAALGCLVKDYFPEPVTVSWNSGALTSGVHTFPAVLQSSGLYSLSSVVTVPSSSLGTQTYICNVNHKPSNTKVDKKVEPKSCDKTHTCPPCPAPELLGPSVFLFPPKPKDTLMISRTPEVTCVVVDVSHEDPEVKFNWYVDGVEVHNAKTKPREEQYNSTYRVVSVLTVLHQDWLNGKEYKCKVSNKALPAPIEKTISKAKGQPREPQVYTLPPSREEMTKNQVSLTCLVKGFYPSDIAVEWESNGQPENNYKTTPPVLDSDGSFFLYSKLTVDKSRWQQGNVFSCSVMHEALHNHYTQKSLSLSPGK
light: NIQMTQSPSSLSASVGDRVTITCKAGQNVNNYLAWYQQKPGKAPKVLIFNANSLQTGVPSRFSGSGSGTDFTLTISSLQPEDFATYYCQQYNSWPTFGGGTKVEIKRTVAAPSVFIFPPSDEQLKSGTASVVCLLNNFYPREAKVQWKVDNALQSGNSQESVTEQDSKDSTYSLSSTLTLSKADYEKHKVYACEVTHQGLSSPVTKSFNRGECGGGGSGGGGSGGGGSGGGGSEVQLVESGGGLVQPGGSLRLSCAASGFTFTNYGLHWVRQAPGKGLEWVSSISPSGGVTYYRDSVKGRFTISRDNSKNTLYLQMNSLRAEDTAVYYCAKPFLGWGGANWIAHWGQGTLVTVSSGGGGSGGGGSGGGGSGGGGSDIQMTQSPSSLSASVGDRVTITCLASEDISNDLAWYQQKPGKAPKLLIYFVDRLLDGVPSRFSGSGSGTDFTLTISSLQPEDFATYYCQQSYKYPPTFGQGTKLEIK
notes: Ly516 HC (IgG1 mutated Fc) + Ly516 LC-TM559 scFv VH-VL
For B2, the binding result in test [1] and in test [2] was “binds” in each case.

B3: Ly342 (bispecific antibody, human IgG1, kappa)
heavy: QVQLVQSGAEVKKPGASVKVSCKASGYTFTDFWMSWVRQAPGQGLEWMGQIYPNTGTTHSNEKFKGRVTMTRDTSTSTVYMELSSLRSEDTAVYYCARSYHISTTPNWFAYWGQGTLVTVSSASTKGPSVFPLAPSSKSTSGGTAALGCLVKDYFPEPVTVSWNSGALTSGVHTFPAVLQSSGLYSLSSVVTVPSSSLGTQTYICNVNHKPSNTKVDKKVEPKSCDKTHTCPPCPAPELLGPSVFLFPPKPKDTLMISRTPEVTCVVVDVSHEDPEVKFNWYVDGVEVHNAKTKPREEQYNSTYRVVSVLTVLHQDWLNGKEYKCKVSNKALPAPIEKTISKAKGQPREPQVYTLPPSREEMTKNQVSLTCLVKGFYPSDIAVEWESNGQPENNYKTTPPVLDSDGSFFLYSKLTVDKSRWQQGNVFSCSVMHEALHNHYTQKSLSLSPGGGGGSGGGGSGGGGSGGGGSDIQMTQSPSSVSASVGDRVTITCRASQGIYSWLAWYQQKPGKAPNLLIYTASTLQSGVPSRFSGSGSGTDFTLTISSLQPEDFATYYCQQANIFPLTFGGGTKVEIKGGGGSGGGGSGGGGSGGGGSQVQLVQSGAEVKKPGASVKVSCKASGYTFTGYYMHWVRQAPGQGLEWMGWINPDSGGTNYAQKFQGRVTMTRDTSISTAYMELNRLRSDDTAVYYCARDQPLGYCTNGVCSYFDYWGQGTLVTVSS
light: DIQMTQSPSSLSASVGDRVTITCKASQNVYKKLEWYQQKPGKVPKVLIYHTNILQTGVPSRFSGSGSGTDYTLTISSLQPEDVATYYCYQWNSGPTFGGGTKVEIKRTVAAPSVFIFPPSDEQLKSGTASVVCLLNNFYPREAKVQWKVDNALQSGNSQESVTEQDSKDSTYSLSSTLTLSKADYEKHKVYACEVTHQGLSSPVTKSFNRGEC
notes: Ly076 HC (IgG1 mutated Fc)-Ly253 scFv VL-VH + Ly076 LC
In the case of B3, the binding result in test [2] and in test [3] was “binds” each time.

B4: Ly344 (bispecific antibody, human IgG1, kappa)
heavy: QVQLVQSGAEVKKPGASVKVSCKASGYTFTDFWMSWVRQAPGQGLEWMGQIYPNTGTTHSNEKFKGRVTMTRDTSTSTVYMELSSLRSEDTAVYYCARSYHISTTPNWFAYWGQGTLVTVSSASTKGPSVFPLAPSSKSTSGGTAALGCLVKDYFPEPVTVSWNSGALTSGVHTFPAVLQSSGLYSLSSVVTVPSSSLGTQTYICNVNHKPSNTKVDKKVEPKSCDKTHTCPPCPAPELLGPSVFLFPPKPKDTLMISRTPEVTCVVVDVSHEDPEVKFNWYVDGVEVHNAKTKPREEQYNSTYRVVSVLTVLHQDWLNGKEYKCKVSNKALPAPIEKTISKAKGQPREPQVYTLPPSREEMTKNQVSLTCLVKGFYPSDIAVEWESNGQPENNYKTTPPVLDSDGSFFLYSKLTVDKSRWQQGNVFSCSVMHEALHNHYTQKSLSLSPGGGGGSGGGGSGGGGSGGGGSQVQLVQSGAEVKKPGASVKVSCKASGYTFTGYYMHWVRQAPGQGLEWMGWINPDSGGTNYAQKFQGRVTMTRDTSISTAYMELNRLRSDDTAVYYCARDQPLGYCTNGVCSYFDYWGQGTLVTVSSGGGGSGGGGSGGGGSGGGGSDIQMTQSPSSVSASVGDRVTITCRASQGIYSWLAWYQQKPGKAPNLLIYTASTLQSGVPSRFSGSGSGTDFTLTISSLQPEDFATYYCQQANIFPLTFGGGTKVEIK
light: DIQMTQSPSSLSASVGDRVTITCKASQNVYKKLEWYQQKPGKVPKVLIYHTNILQTGVPSRFSGSGSGTDYTLTISSLQPEDVATYYCYQWNSGPTFGGGTKVEIKRTVAAPSVFIFPPSDEQLKSGTASVVCLLNNFYPREAKVQWKVDNALQSGNSQESVTEQDSKDSTYSLSSTLTLSKADYEKHKVYACEVTHQGLSSPVTKSFNRGEC
notes: Ly076 HC (IgG1 mutated Fc)-Ly253 scFv VH-VL + Ly076 LC
With B4, the binding result in test [2] and in test [3] was “binds” throughout.

B5: Ly343 (bispecific antibody, human IgG1, kappa)
heavy: QVQLVQSGAEVKKPGASVKVSCKASGYTFTDFWMSWVRQAPGQGLEWMGQIYPNTGTTHSNEKFKGRVTMTRDTSTSTVYMELSSLRSEDTAVYYCARSYHISTTPNWFAYWGQGTLVTVSSASTKGPSVFPLAPSSKSTSGGTAALGCLVKDYFPEPVTVSWNSGALTSGVHTFPAVLQSSGLYSLSSVVTVPSSSLGTQTYICNVNHKPSNTKVDKKVEPKSCDKTHTCPPCPAPELLGPSVFLFPPKPKDTLMISRTPEVTCVVVDVSHEDPEVKFNWYVDGVEVHNAKTKPREEQYNSTYRVVSVLTVLHQDWLNGKEYKCKVSNKALPAPIEKTISKAKGQPREPQVYTLPPSREEMTKNQVSLTCLVKGFYPSDIAVEWESNGQPENNYKTTPPVLDSDGSFFLYSKLTVDKSRWQQGNVFSCSVMHEALHNHYTQKSLSLSPG
light: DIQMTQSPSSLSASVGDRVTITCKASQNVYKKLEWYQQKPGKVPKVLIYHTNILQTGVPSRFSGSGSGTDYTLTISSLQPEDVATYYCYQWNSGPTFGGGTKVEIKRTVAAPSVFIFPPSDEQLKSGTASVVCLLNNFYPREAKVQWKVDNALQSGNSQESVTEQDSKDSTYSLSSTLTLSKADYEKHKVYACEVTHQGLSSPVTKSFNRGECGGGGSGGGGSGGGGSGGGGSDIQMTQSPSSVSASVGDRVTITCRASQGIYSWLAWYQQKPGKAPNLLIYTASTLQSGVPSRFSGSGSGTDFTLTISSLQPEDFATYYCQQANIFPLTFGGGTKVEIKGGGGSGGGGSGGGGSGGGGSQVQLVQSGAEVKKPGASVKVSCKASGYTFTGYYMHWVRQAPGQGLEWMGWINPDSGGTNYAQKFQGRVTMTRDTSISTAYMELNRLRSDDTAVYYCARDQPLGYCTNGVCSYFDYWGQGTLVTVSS
notes: Ly076 HC (IgG1 mutated Fc) + Ly076 LC-Ly253 scFv VL-VH
For the molecule B5, the binding result in test [2] and in test [3] was “binds” each time.

B6: Ly345 (bispecific antibody, human IgG1, kappa)
heavy: QVQLVQSGAEVKKPGASVKVSCKASGYTFTDFWMSWVRQAPGQGLEWMGQIYPNTGTTHSNEKFKGRVTMTRDTSTSTVYMELSSLRSEDTAVYYCARSYHISTTPNWFAYWGQGTLVTVSSASTKGPSVFPLAPSSKSTSGGTAALGCLVKDYFPEPVTVSWNSGALTSGVHTFPAVLQSSGLYSLSSVVTVPSSSLGTQTYICNVNHKPSNTKVDKKVEPKSCDKTHTCPPCPAPELLGPSVFLFPPKPKDTLMISRTPEVTCVVVDVSHEDPEVKFNWYVDGVEVHNAKTKPREEQYNSTYRVVSVLTVLHQDWLNGKEYKCKVSNKALPAPIEKTISKAKGQPREPQVYTLPPSREEMTKNQVSLTCLVKGFYPSDIAVEWESNGQPENNYKTTPPVLDSDGSFFLYSKLTVDKSRWQQGNVFSCSVMHEALHNHYTQKSLSLSPG
light: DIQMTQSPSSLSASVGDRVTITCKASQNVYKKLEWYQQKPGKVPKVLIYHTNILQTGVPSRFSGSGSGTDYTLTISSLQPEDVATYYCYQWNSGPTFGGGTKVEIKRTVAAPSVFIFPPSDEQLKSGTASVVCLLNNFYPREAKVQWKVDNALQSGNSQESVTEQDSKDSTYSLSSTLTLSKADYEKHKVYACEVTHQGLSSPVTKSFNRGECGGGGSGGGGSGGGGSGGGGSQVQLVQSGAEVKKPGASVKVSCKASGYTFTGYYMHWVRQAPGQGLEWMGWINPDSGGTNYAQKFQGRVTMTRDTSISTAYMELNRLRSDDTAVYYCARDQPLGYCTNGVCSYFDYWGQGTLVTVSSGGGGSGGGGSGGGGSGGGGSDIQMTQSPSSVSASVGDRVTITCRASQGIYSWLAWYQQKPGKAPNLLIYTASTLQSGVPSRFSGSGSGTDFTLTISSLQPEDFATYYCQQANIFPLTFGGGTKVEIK
notes: Ly076 HC (IgG1 mutated Fc) + Ly076 LC-Ly253 scFv VH-VL
Take B6: the binding result in test [2] and in test [3] was “binds” each time.
